B1: PLD5 (parent)
chain: VTYMNMTAYNKGRLQSSFWIVDKQ
B2: MYBL2 (parent)
chain: VKKSCWTEEEDRIICEAHKVLGNR

Variants of: B1
Test: protein stability index of a GFP-peptide fusion (GPS, HEK-293T) (PSI 1-6); higher = more stable
Conditions: c terminus: a fixed tail appended
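Note: lentivirally expressed fusions sorted by FACS into six bins by GFP to DsRed ratio, PSI derived from sequencing read proportions per bin multiplied by bin number.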

Protein stability index of substitutions, site by site:
S17: M 4.26 | N 1.49 | P 2.33 | R 3.71 | T 1.43 | Y 3.31
F18: A 2.89 | C 2.26 | D 2.07 | E 2.2 | G 2.31 | H 1.48 | K 1.8 | L 2.32 | M 2.26 | N 1.67 | P 2.02 | Q 1.8 | R 1.82 | S 2.07 | T 1.74 | V 2.57 | W 1.24 | Y 1.8
W19: A 1.8 | C 1.49 | D 2.45 | E 2.04 | F 2.04 | G 2.01 | H 2.21 | I 1.76 | K 1.84 | L 2 | M 1.62 | P 1.98 | Q 2.46 | R 1.91 | S 2.29 | T 2.18 | V 1.65 | Y 1.91
I20: A 1.41 | C 1.76 | D 1.33 | E 2.23 | G 1.25 | H 2.41 | K 2.27 | L 1.22 | M 3.68 | N 1.91 | P 1.7 | Q 1.97 | R 1.51 | S 2.09 | T 1.4 | W 2.26 | Y 2.98
V21: A 2.08 | C 1.38 | D 1.96 | E 1.5 | F 1.43 | G 1.53 | H 1.28 | I 2.63 | K 2.31 | L 2.21 | M 1.52 | N 2.82 | P 1.85 | Q 1.89 | R 1.7 | S 1.55 | T 2.43 | Y 1.81
D22: C 3.67 | E 1.21 | H 3.52 | K 2.53 | M 3.38 | N 3.19 | P 2.11 | R 3.44 | T 3.51
K23: A 3.81 | C 1.95 | D 2.85 | E 3.18 | H 2.49 | I 2.33 | L 4.23 | M 3.22 | N 3.33 | P 2.67 | Q 1.74 | R 2.17 | T 3.52 | Y 2.52
Q24: A 2.28 | D 1.85 | E 1.48 | H 2.19 | I 2.52 | K 1.24 | M 3.08 | N 2.11 | P 2.67 | R 2.46 | S 2.22 | T 2.79

Variants of: B2
Test: as above
Conditions: c terminus: a fixed tail appended

Protein stability index of substitutions, site by site:
V1: A 3.19 | C 3.04 | D 3.35 | E 3.07 | F 2.87 | G 3.32 | H 3.69 | I 3.23 | K 3.34 | L 3.02 | M 3.32 | N 3.33 | P 3.66 | Q 3.23 | R 3.9 | S 3.35 | T 3.78 | W 3.12 | Y 2.71
K2: A 3.28 | C 2.31 | D 4.25 | E 3.19 | F 2.86 | G 3.46 | H 3.25 | I 2.89 | L 2.98 | M 2.92 | N 3.43 | P 3.47 | Q 3.6 | R 3.54 | S 3.8 | T 2.97 | V 2.76 | W 2.3 | Y 3.35
K3: A 3.43 | C 2.39 | D 3.54 | E 4.1 | F 2.69 | G 3.38 | H 3.26 | I 2.4 | L 2.49 | M 2.78 | N 2.78 | P 3.14 | Q 3.27 | R 3.3 | S 3.12 | T 2.76 | V 2.52
